Sequences and labels used below:
B1: CA131 (antibody, V domains shown)
VH: QVQLQESGSGLVKPSQTLSLTCAVSGGSISSGGYSWSWIRQPPGKGLEWIGYIYHSGSTYYNPSLKSRVTISVDRSKNQFSLKLSSVTAADTAVYYCATGGGHKELGGWGPRGTLVTVSS
VL: not shown
B2: CA124 (antibody, V domains shown)
VH: EVQLVQSGGGLVKPGGSLRLSCAASGFTFSDYYMSWIRQAPGKGLEWVSYISSSGSTIYYADSVKGRFTISRDNAKNSLYLQMNSLRAEDTAVYYCASGFSSWGADDYWGQGTLVTVSS
VL: DIVMTQSPSSLSASVGDRVTITCRASQGISNYLAWFQQKPGKAPKSLIYAASSLQSGVPSKFSGSGSGTDFTLTISSLQPEDFATYYCQQYNSYPLTFGQGTKLEIK
B3: CA139 (antibody, V domains shown)
VH: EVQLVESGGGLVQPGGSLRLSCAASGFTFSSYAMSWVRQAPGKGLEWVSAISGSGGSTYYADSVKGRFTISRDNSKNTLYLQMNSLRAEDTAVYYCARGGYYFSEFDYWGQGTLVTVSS
VL: B2 VL with Q100G, L104V
B4: CA118 (antibody, V domains shown)
VH: EVQLVESGGGLVKPGGSLRLSCAASGFTFSSYSMNWVRQAPGKGLEWVSSISSSSSYIYYADSVKGRFTISRDNAKNSLYLQMNSLRAEDTAVYYCARGWQQLAYWDYWGQGTLVTVSS
VL: SYELTQPPSVSVAPGQTARITCGGNNIGSKSVHWYQQKPGQAPVLVVYDDSDRPSGIPERFSGSNSGNTATLTISRVEAGDEADYYCQVWDSSSDHYVFGTGTKVTVL
B5: CA149 (antibody, V domains shown)
VH: EVQLVESGGGLVKPGGSLRLSCAASGFTFSSYSMNWVRQAPGKGLEWVSSISSSSSYIYYADSVKGRFTISRDNAKNSLYLQMNSLRAEDTAVYYCARCAAGFVPDAFDIWGQGTMVTVSS
VL: not shown
B6: CA125 (antibody, V domains shown)
VH: B5 VH with C99V, A100V, A101D, G102T, F103A, V104M, P105G
VL: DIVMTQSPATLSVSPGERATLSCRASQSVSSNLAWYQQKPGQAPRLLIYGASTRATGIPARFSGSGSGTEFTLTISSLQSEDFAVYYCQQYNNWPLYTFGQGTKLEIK
B7: CA134 (antibody, V domains shown)
VH: EVQLVESGGGLVKPGGSLRLSCAASGFTFSSYSMNWVRQAPGKGLEWVSSISSSSSYIYYADSVKGRFTISRDNAKNSLYLQMNSLRAEDTAVYYCARVFGEQLVSFFDYWGQGTLVTVSS
VL: not shown
B8: CA128 (antibody, V domains shown)
VH: QVQLVQSGGGLVKPGGSLRLSCAASGFTFSDYYMSWIRQAPGKGLEWVSYISSSGSTIYYADSVKGRFTISRDNAKNSLYLQMNSLRAEDTAVYYCARDSGSFVGVFDYWGQGTLVTVSS
VL: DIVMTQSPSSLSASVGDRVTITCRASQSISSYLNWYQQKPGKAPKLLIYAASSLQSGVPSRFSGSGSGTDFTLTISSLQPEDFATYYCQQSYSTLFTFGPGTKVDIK
B9: CA171 (antibody, V domains shown)
VH: B5 VH with K13Q, S50Y, Y57T, C99T, A100F, A101Y, G102S, F103N, V104Y, P105L
VL: EIVLTQSPDTLSMCPGERATLSCRASQSVSSYLAWYQQKPGQAPRLLIYDASNRATGIPARFSGSGSGTDFTLTISSLEPEDFAVYYCQQRSNWLSMYTFGQGTKLEIK

Residue numbers refer to the chain shown, from its start.

The target of the first experiment is T1, HLA-E-RL9SIV single chain trimer on transfected 293T cells (human, UniProt P61769 21-119; P13747 22-358).
T1 construct: also called control HLA-E-peptide complex
The experiment in a line: flow cytometry, SCT-transfected 293T cells, MFI bar chart [E]. (A flow cytometer gives signals particle by particle.)
In the case of B1, the binding result is recorded as “no binding (tested: 2 µg/ml)”.

With B2, the binding result is given as “no binding (tested: 2 µg/ml)”. Regarding B3, the binding result is “no binding (tested: 2 µg/ml)”.

With B4, the binding result is listed as “no binding (tested: 2 µg/ml)”. As to B5, the binding result is reported as “no binding (tested: 2 µg/ml)”. As for B6, the binding result was “no binding (tested: 2 µg/ml)”. For B7, the binding result is recorded as “no binding (tested: 2 µg/ml)”. With B8, the binding result is on record as “no binding (tested: 2 µg/ml)”.

The target in the next experiment is T2, HLA-E-RL9HIV single chain trimer on transfected 293T cells (human, UniProt P61769 21-119; P13747 22-358).
T2 construct: also called control HLA-E-peptide complex
Described as above.
For the molecule B1, the binding result was “no binding (tested: 2 µg/ml)”. Consider B2, for which the binding result is given as “no binding (tested: 2 µg/ml)”. Same read-out and setting: the entry for B3 is “no binding (tested: 2 µg/ml)”. For B4, the binding result is recorded as “no binding (tested: 2 µg/ml)”.

As for B5, the binding result is “no binding (tested: 2 µg/ml)”. Take B9: the binding result is listed as “no binding (tested: 2 µg/ml)”. Regarding B6, the binding result is “no binding (tested: 2 µg/ml)”. The same measure, in the same setting: the entry for B7 is “no binding (tested: 2 µg/ml)”.

B8: the binding result is “no binding (tested: 2 µg/ml)”.

For the origin of these results see patent US20250051454A1 (DUKE UNIVERSITY, published 2025).
